The target in test [1] is Human Id1: Histidine (human) (UniProt P41134). Kind of test: ELISA, coated antigen; reference human Id1. (In an ELISA, binding on a coated surface is turned into a signal by an enzyme label.)
For test [2], the target named is T1, Mouse Id1: Histidine (mouse, UniProt P20067-2 1-148).
T1 construct: E. coli fusion protein (vector pGW07); also called m-Id1-His; not shown: His-tag
T1 sequence: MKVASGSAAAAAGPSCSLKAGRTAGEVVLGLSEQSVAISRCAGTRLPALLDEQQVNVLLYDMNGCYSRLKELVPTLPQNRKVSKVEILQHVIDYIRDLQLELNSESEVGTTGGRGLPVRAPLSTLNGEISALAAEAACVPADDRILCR
Nature of the test: ELISA, coated antigen, Ab 0.000 ug/ml (blank, diluent only).

In test [3] the target is T2, Human Id2: Histidine (human, UniProt Q02363 1-134, limits assumed).
T2 construct: E. coli fusion protein (vector pGW07); also called h-Id2: His; not shown: His-tag
T2 sequence (looked up): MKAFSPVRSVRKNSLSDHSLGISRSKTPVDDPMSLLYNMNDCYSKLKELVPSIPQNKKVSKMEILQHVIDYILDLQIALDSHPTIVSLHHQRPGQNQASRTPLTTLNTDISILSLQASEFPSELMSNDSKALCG
The description is as above.

The target of test [4] is Human Id1: Histidine (human) (UniProt P41134). Kind of test: sandwich ELISA, 5-3-coated wells, human Id1:His 50.0 ng/ml, detected with rabbit polyclonal B-5133-HRP.
Test [5] has the same target. Nature of the test: ELISA, coated antigen, Ab 0.10 ug/ml.
Test [6] shares this target. Nature of the test: ELISA, coated antigen, Ab 2.50 ug/ml.
Test [7] has the same target. Kind of test: ELISA, coated antigen, Ab 5.00 ug/ml.
Test [8] deals with T3, glutathione S-transferase (GST) (UniProt P08515 1-218 = GST).
T3 construct: Coated on wells as control for the fusion partner of the immunogen
T3 sequence (P08515 whole entry, the tested form may be a part): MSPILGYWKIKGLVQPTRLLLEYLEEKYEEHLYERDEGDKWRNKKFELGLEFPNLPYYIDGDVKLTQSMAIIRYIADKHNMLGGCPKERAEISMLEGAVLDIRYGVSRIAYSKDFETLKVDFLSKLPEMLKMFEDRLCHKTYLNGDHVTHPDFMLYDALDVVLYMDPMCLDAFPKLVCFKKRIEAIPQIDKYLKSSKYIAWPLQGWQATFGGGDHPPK
Nature of the test: ELISA, coated antigen, Ab 10.0 ug/ml. As for the experimental part:
(§1) Incubate plates at 2-8° C. overnight (16-24 hours). [0145] 11. Shake off the BSA solution. [0146] 12. Dispense 250 μL of 2.5% sucrose solution into each well. [0147] 13. Incubate plates at 2-8° C. for 4 hours. [0148] 14. Shake off sucrose solution. [0149] 15. Dry in vacuum at room temperature overnight. Screening Method [0150] 1. Dispense 100 μL of antibody diluent, diluted rabbit polyclonal anti-Id1 into appropriate wells. […] 2. Incubate at room temperature with mechanical shaking at 750 rpm for 90 minutes. [0152] 3. Remove the incubation mixture by flicking plate content into an appropriate waste container, followed by rinsing the wells 5 times with distilled water. […] 4. Strike the wells sharply onto absorbent paper or paper towels to remove all residual water droplets. [0154] 5. Dispense 100 μL of Goat Anti-Rabbit IgG-HRP Conjugate Reagent into each well. Gently mix for 5 seconds. [0155] 6. Incubate at room temperature with mechanical shaking at 750 rpm for 90 minutes. […] 7. Repeat procedures 3 and 4. [0157] 8. Dispense 100 μL of TMB Reagent into each well. Gently mix for 5 seconds. [0158] 9. Incubate at room temperature with mechanical shaking at 750 rpm for 20 minutes. [0159] 10. Add 100 μL of Stop Solution (1N HCl) into each well. [0160] 11. Gently mix for 10 seconds to ensure a complete mixing. […] 12. Read optical density (absorbance) at 450 nm. Results from this assay were used to select the rabbit sera with the highest antibodies titer that selectively reacts with mouse Id1 or human Id1 or both.
(§2) A comparison was carried out between the reactivity of the rabbit monoclonal anti-mouse Id1, clone #BCH-1/#37-2, of this invention and the mouse monoclonal anti-mouse/human Id1 from BD Pharmingen with the following antigens prepared in Example 5: mouse Id1:His, human Id1:His, human Id2:His, human Id3:His, and GST. These antigens and protein were used to coat the wells.
(§3) Materials and methods were those described in Example 9 except (a) Pharmingen's mouse monoclonal anti-mouse Id1 was used in addition to the rabbit monoclonal anti-mouse Id1 (Example 10), and (b) goat anti-mouse IgG-HRP conjugate was used to process the wells treated with the Pharmingen monoclonal antibody and polyclonal goat anti-rabbit IgG-HRP conjugate was used to process wells treated with rabbit monoclonal anti-mouse Id1.

Test [9] addresses T1, Mouse Id1: Histidine. Nature of the test: ELISA, coated antigen, Ab 10.0 ug/ml. As for the experimental part:
as §1, §2, §3

Test [10] has as its target T2, Human Id2: Histidine. Nature of the test: ELISA, coated antigen, Ab 10.0 ug/ml. The method, then: as §1, §2, §3
The target of test [11] is T4, Human Id3: Histidine (human, UniProt Q02535 1-119, limits assumed).
T4 construct: E. coli fusion protein (vector pGW07); also called h-Id3: His; not shown: His-tag
T4 sequence (looked up): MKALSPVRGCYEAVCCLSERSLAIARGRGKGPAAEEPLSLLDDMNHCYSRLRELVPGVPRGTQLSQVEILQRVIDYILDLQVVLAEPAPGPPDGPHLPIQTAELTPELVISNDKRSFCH
Kind of test: ELISA, coated antigen, Ab 10.0 ug/ml. The method, then:
as §1, §2, §3

Test [12] addresses T3, glutathione S-transferase (GST). Nature of the test: ELISA, coated antigen, Ab 0 ug/ml (blank). As for the experimental part: as §1, §2, §3
Test [13] has as its target T1, Mouse Id1: Histidine. Kind of test: ELISA, coated antigen, Ab 0 ug/ml (blank). As for the experimental part:
as §1, §2, §3

Test [14] deals with T2, Human Id2: Histidine. Nature of the test: ELISA, coated antigen, Ab 0 ug/ml (blank). As for the experimental part: as §1, §2, §3
The target of test [15] is T4, Human Id3: Histidine. Nature of the test: ELISA, coated antigen, Ab 0 ug/ml (blank). As for the experimental part: as §1, §2, §3

Chain of Human Id1: Histidine (human) (P41134 whole entry): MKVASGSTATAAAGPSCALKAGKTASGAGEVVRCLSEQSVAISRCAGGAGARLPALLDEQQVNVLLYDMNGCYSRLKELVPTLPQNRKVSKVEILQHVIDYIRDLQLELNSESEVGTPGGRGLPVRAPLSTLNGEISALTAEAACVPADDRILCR

The molecule “rabbit monoclonal anti-human Id1, clone #BCH-2/#5-3 (antibody)” gave a Cross-reactivity (%) in test [1] of 100%. Besides, the A450 stood at 0.046 A450 in [2], 0.049 A450 in test [3] and 3.15 A450 in [4].
With “rabbit monoclonal anti-mouse/human Id1, clone #BCH-1/#195-14 (antibody)”, the A450 in test [2] amounted to 0.045 A450; in [3], 0.058 A450.

B1: rabbit monoclonal anti-mouse Id1, clone #BCH-1/#37-2 (antibody, V domains shown)
VH: QSVEESGGRLVTPGTPLTLTCKVSGFDINSYAMDWFRQAPGKGLEWIGMMSTRGNTYYTSWAKGRFTISKTSSTTVDLKMTSLTTEDTATYFCARGGLWGPGTLVTVSS
VL: RVLTQTASPVSAAVGGTVTINCQASQSVYNGNRLGWYQLKPGQSPKELIHDASTLASGVPSRFRGSGSGTQFTLTINDVQCDDAATYYCVGSYACSTGDCNVFGGGTEVVVK
notes: Rabbit IgG from hybridoma, Protein G purified; also called m Id1 MoAb 37-2; Rabbit Monoclonal Anti-Mouse Id1 (#37-2)
Take B1: the A450 in test [5] is 0.061 A450; in test [6], 0.132 A450; in test [7], 0.153 A450; in test [8], 0.108 A450; in test [9], 3.27 A450; in test [10], 0.115 A450. The A450 in test [11] is 0.113 A450; in test [12], 0.047 A450; in test [13], 0.047 A450; in test [14], 0.045 A450; in test [15], 0.046 A450.

These data come from US20060286609A1 (BIOCHECK, published 2006).
